Source: US20110263454A1, “Methods of Identifying Functional Characteristics of Promoters, Transcription Modifying Proteins and Transcription Modulating Agents” (Salk Institute for Biological Studies, priority 2008, published 2011)

Legend:
[1] = tested on: mPer1 promoter; assay: NHR-promoter luciferase screen, mPer1 promoter; type: cell-based, mouse; conditions: for Luc. act., normalized to lacZ / Normalized Luc. act., normalized to control: Per1 promoter reporter, co-transfected HR, with or without its ligand; for Normalized Luc. act., normalized to control: relative to control; for luciferase activity normalized to lacZ activity and to a control, mPer1: mPer1 promoter-luciferase, CV-1 cells, NHR +/- ligand, control = 1.00
Summary of the method: (§1)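 CV-1 cells were co-transfected with 50 ng NHR (homodimer or NHR/RXR heterodimer), 100 ng promoter-luciferase construct and 50 ng LacZ. Luciferase was normalized to LacZ and to a no-NHR/no-ligand control.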

[2] = tested on: mCAR promoter; assay: NHR-promoter luciferase screen, mCAR promoter; type: cell-based, mouse; conditions: for luciferase activity normalized to lacZ activity and to a control, mCAR: mCAR promoter-luciferase, CV-1 cells, NHR +/- ligand, control = 1.00; for Luc. act., normalized to lacZ / Normalized Luc. act., normalized to control: mCAR promoter, HR/ligand component
Summary of the method: as §1

[3] = tested on: Bmal1 promoter; assay: NHR-promoter luciferase screen, Bmal1 promoter; type: cell-based, mouse; conditions: for Luc. act., normalized to lacZ / Normalized Luc. act., normalized to control: Bmal1 promoter, HR component without or with ligand; for mBmal1 promoter reporter activity: transcription factor +/- ligand, control = 1.00
Summary of the method: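 Luciferase activity was measured 48 h after transfection, normalized to LacZ and then to a control lacking NHR or ligand. CV-1 cells carried 100 ng Bmal1 reporter, 50 ng NHR construct and 50 ng LacZ.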

[4] = tested on: hPPARg1 promoter; assay: NHR-promoter luciferase screen, hPPARg1 promoter; type: cell-based, human; conditions: for Luc. act., normalized to lacZ / Normalized Luc. act., normalized to control: PPARG1 promoter, hormone receptor with or without its ligand; for Normalized Luc. act., normalized to control: relative to control; for Results of assays of transcription factor (+/- ligand) with hPPARg1: Table 6d, luciferase activity relative to control (control = 1.00)
Summary of the method: as §1

[5] = tested on: mUCP3 promoter; assay: NHR-promoter luciferase screen, mUCP3 promoter; type: cell-based, mouse; conditions: for Normalized Luc. act., normalized to control / Luc. act., normalized to lacZ: mUCP3 promoter reporter; for Normalized Luc. act., normalized to control: HR without or with its ligand, relative to control; for Luc. act., normalized to lacZ: hormone receptor (HR) without or with its ligand; for mUCP3 promoter reporter activity: transcription factor +/- ligand, control = 1.00
Summary of the method: as §1

| Molecule | Luc. act., normalized to lacZ [1] | Normalized Luc. act., normalized to control [1] | luciferase activity normalized to lacZ activity and to a control, mPer1 [1] | luciferase activity normalized to lacZ activity and to a control, mCAR [2] | Luc. act., normalized to lacZ [2] | Normalized Luc. act., normalized to control [2] | Luc. act., normalized to lacZ [3] | Normalized Luc. act., normalized to control [3] | mBmal1 promoter reporter activity [3] | Luc. act., normalized to lacZ [4] | Normalized Luc. act., normalized to control [4] | Results of assays of transcription factor (+/- ligand) with hPPARg1 [4] | Normalized Luc. act., normalized to control [5] | Luc. act., normalized to lacZ [5] | mUCP3 promoter reporter activity [5] |
| --- | --- | --- | --- | --- | --- | --- | --- | --- | --- | --- | --- | --- | --- | --- | --- |
| NR4a3: NR4a3 (NR4A3; NOR1), nuclear hormone receptor cDNA driver (protein, UniProt Q92570 1-626, looked up) Nuclear receptor subfamily 4 …: MPCVQAQYSPSPPGSSYAAQTYSSEYTTEIMNPDYTKLTMDLGSTEITATATTSLPSISTFVEGYSSNYELKPSCVYQMQRPLIKVEEGRAPSYHHHHHHHHHHHHHHQQQHQQPSIPPASSPEDEVLPSTSMYFKQSPPSTPTTPAFPPQAGALWDEALPSAPGCIAPGPLLDPPMKAVPTVAGARFPLFHFKPSPPHPPAPSPAGGHHLGYDPTAAAALSLPLGAAAAAGSQAAALESHPYGLPLAKRAAPLAFPPLGLTPSPTASSLLGESPSLPSPPSRSSSSGEGTCAVCGDNAACQHYGVRTCEGCKGFFKRTVQKNAKYVCLANKNCPVDKRRRNRCQYCRFQKCLSVGMVKEVVRTDSLKGRRGRLPSKPKSPLQQEPSQPSPPSPPICMMNALVRALTDSTPRDLDYSRYCPTDQAAAGTDAEHVQQFYNLLTASIDVSRSWAEKIPGFTDLPKEDQTLLIESAFLELFVLRLSIRSNTAEDKFVFCNGLVLHRLQCLRGFGEWLDSIKDFSLNLQSLNLDIQALACLSALSMITERHGLKEPKRVEELCNKITSSLKDHQSKGQALEPTESKVLGALVELRKICTLGLQRIFYLKLEDLVSPPSIIDKLFLDTLPF | 139.6 | 1.0 | 0.97 | 0.57 | 21.58 | 0.6 | 7.5 | 0.5 | 0.48 | 61.0 | 0.9 | 0.88 | 1.2 | 0.81 | 1.19 |
| DAX-1: DAX1 (NR0B1), cDNA driver (protein, UniProt P51843 1-470, looked up) Nuclear receptor subfamily 0 …: MAGENHQWQGSILYNMLMSAKQTRAAPEAPETRLVDQCWGCSCGDEPGVGREGLLGGRNVALLYRCCFCGKDHPRQGSILYSMLTSAKQTYAAPKAPEATLGPCWGCSCGSDPGVGRAGLPGGRPVALLYRCCFCGEDHPRQGSILYSLLTSSKQTHVAPAAPEARPGGAWWDRSYFAQRPGGKEALPGGRATALLYRCCFCGEDHPQQGSTLYCVPTSTNQAQAAPEERPRAPWWDTSSGALRPVALKSPQVVCEAASAGLLKTLRFVKYLPCFQVLPLDQQLVLVRNCWASLLMLELAQDRLQFETVEVSEPSMLQKILTTRRRETGGNEPLPVPTLQHHLAPPAEARKVPSASQVQAIKCFLSKCWSLNISTKEYAYLKGTVLFNPDVPGLQCVKYIQGLQWGTQQILSEHTRMTHQGPHDRFIELNSTLFLLRFINANVIAELFFRPIIGTVSMDDMMLEMLCTKI | 153.4 | 1.1 | 1.07 | 0.96 | 36.74 | 1.0 | 19.6 | 1.3 | 1.25 | 67.5 | 1.0 | 0.98 | 1.3 | 0.89 | 1.31 |
| PR: Progesterone Receptor (NR3C3), cDNA driver (protein, UniProt P06401 1-933, looked up) Progesterone receptor: MTELKAKGPRAPHVAGGPPSPEVGSPLLCRPAAGPFPGSQTSDTLPEVSAIPISLDGLLFPRPCQGQDPSDEKTQDQQSLSDVEGAYSRAEATRGAGGSSSSPPEKDSGLLDSVLDTLLAPSGPGQSQPSPPACEVTSSWCLFGPELPEDPPAAPATQRVLSPLMSRSGCKVGDSSGTAAAHKVLPRGLSPARQLLLPASESPHWSGAPVKPSPQAAAVEVEEEDGSESEESAGPLLKGKPRALGGAAAGGGAAAVPPGAAAGGVALVPKEDSRFSAPRVALVEQDAPMAPGRSPLATTVMDFIHVPILPLNHALLAARTRQLLEDESYDGGAGAASAFAPPRSSPCASSTPVAVGDFPDCAYPPDAEPKDDAYPLYSDFQPPALKIKEEEEGAEASARSPRSYLVAGANPAAFPDFPLGPPPPLPPRATPSRPGEAAVTAAPASASVSSASSSGSTLECILYKAEGAPPQQGPFAPPPCKAPGASGCLLPRDGLPSTSASAAAAGAAPALYPALGLNGLPQLGYQAAVLKEGLPQVYPPYLNYLRPDSEASQSPQYSFESLPQKICLICGDEASGCHYGVLTCGSCKVFFKRAMEGQHNYLCAGRNDCIVDKIRRKNCPACRLRKCCQAGMVLGGRKFKKFNKVRVVRALDAVALPQPVGVPNESQALSQRFTFSPGQDIQLIPPLINLLMSIEPDVIYAGHDNTKPDTSSSLLTSLNQLGERQLLSVVKWSKSLPGFRNLHIDDQITLIQYSWMSLMVFGLGWRSYKHVSGQMLYFAPDLILNEQRMKESSFYSLCLTMWQIPQEFVKLQVSQEEFLCMKVLLLLNTIPLEGLRSQTQFEEMRSSYIRELIKAIGLRQKGVVSSSQRFYQLTKLLDNLHDLVKQLHLYCLNTFIQSRALSVEFPEMMSEVIAAQLPKILAGMVKPLLFHKK | 207.4 | 1.4 | 1.44 | 0.98 | 37.53 | 1.0 | 17.9 | 1.1 | 1.14 | 81.3 | 1.2 | 1.18 | 1.3 | 0.86 | 1.27 |
| GCNF: Germ Cell Nuclear Factor (NR6A1, GCNF1), cDNA driver (protein, UniProt Q15406 1-480, looked up) Nuclear receptor subfamily 6 …: MERDEPPPSGGGGGGGSAGFLEPPAALPPPPRNGFCQDELAELDPGTISVSDDRAEQRTCLICGDRATGLHYGIISCEGCKGFFKRSICNKRVYRCSRDKNCVMSRKQRNRCQYCRLLKCLQMGMNRKAIREDGMPGGRNKSIGPVQISEEEIERIMSGQEFEEEANHWSNHGDSDHSSPGNRASESNQPSPGSTLSSSRSVELNGFMAFREQYMGMSVPPHYQYIPHLFSYSGHSPLLPQQARSLDPQSYSLIHQLLSAEDLEPLGTPMLIEDGYAVTQAELFALLCRLADELLFRQIAWIKKLPFFCELSIKDYTCLLSSTWQELILLSSLTVYSKQIFGELADVTAKYSPSDEELHRFSDEGMEVIERLIYLYHKFHQLKVSNEEYACMKAINFLNQDIRGLTSASQLEQLNKRYWYICQDFTEYKYTHQPNRFPDLMMCLPEIRYIAGKMVNVPLEQLPLLFKVVLHSCKTSVGKE | 151.9 | 1.1 | 1.06 | 0.78 | 29.68 | 0.8 | 13.7 | 0.9 | 0.88 | 88.6 | 1.3 | 1.29 | 1.0 | 0.66 | 0.98 |
| NR4a2: NR4a2 (NR4A2; NURR1), nuclear hormone receptor cDNA driver (protein, UniProt P43354 1-598, looked up) Nuclear receptor subfamily 4 …: MPCVQAQYGSSPQGASPASQSYSYHSSGEYSSDFLTPEFVKFSMDLTNTEITATTSLPSFSTFMDNYSTGYDVKPPCLYQMPLSGQQSSIKVEDIQMHNYQQHSHLPPQSEEMMPHSGSVYYKPSSPPTPTTPGFQVQHSPMWDDPGSLHNFHQNYVATTHMIEQRKTPVSRLSLFSFKQSPPGTPVSSCQMRFDGPLHVPMNPEPAGSHHVVDGQTFAVPNPIRKPASMGFPGLQIGHASQLLDTQVPSPPSRGSPSNEGLCAVCGDNAACQHYGVRTCEGCKGFFKRTVQKNAKYVCLANKNCPVDKRRRNRCQYCRFQKCLAVGMVKEVVRTDSLKGRRGRLPSKPKSPQEPSPPSPPVSLISALVRAHVDSNPAMTSLDYSRFQANPDYQMSGDDTQHIQQFYDLLTGSMEIIRGWAEKIPGFADLPKADQDLLFESAFLELFVLRLAYRSNPVEGKLIFCNGVVLHRLQCVRGFGEWIDSIVEFSSNLQNMNIDISAFSCIAALAMVTERHGLKEPKRVEELQNKIVNCLKDHVTFNNGGLNRPNYLSKLLGKLPELRTLCTQGLQRIFYLKLEDLVPPPAIIDKLFLDTLPF | 155.3 | 1.1 | 1.08 | 0.57 | 21.74 | 0.6 | 8.1 | 0.5 | 0.52 | 58.8 | 0.9 | 0.85 | 1.0 | 0.68 | 1.01 |
